# Experimental data as given in patent publication US20260125665.
substance,measurement,setting,value
Thrombin,"cleavage by thrombin (reducing SDS-PAGE, Western blot with anti-human UPA antibody)",Microlyse variant 1.1,"For both ML 1.0 and ML 1.1 a distinct band at around 35 Kd is observed, indicating cleavage of Microlyse by thrombin."
same,"cleavage by thrombin (reducing SDS-PAGE, Western blot with anti-human UPA antibody)",Microlyse variant 1.0,"For both ML 1.0 and ML 1.1 a distinct band at around 35 Kd is observed, indicating cleavage of Microlyse by thrombin."
